This passage reports activity results from patent publication US20090202993.

For the data set, the target named is T1, Phi29 DNA polymerase (Bacillus phage phi29) (UniProt P03680).
T1 sequence: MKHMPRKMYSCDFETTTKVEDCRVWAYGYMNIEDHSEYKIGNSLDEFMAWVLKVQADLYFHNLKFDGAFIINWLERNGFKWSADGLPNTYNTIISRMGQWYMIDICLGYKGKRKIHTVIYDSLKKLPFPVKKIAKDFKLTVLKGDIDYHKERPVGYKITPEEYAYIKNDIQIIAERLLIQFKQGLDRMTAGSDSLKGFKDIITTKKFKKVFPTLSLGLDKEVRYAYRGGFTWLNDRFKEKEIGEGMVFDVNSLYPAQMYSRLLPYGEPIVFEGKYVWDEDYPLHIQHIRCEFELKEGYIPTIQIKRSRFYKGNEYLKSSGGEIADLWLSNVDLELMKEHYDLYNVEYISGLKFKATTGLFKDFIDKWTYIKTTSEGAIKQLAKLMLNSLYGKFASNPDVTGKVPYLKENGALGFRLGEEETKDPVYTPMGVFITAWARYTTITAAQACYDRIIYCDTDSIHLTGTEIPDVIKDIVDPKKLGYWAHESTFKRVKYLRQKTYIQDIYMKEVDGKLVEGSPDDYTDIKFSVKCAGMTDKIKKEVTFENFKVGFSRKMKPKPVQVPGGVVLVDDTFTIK
Briefly: cleavage_in_vitro. Particulars: Tango buffer, 37 C, 3 h; Mg2+, Mn2+ or Co2+ required; scale: % increase in acid-soluble product vs no enzyme.

The substance [3H]poly(A) RNA returned an activity of 30.
